Laboratory results as given in US11406665B2, “Therapeutic peptides that target TGF-beta interaction” (GENAGON THERAPEUTICS AB, priority 2017, dated 2022).

Experiments:
TGFb3 = molecular target: T1, TGFb3 (Homo sapiens, UniProt P10600); test: ELISA binding of ligand to immobilized CLPTM1 peptide fragments; details: biotinylated peptide immobilized at 1 μM; ligand 100 ng/ml; OD 450-620 measured
T1 construct: purchased Abcam
T1 sequence (P10600 301-412 limits assumed): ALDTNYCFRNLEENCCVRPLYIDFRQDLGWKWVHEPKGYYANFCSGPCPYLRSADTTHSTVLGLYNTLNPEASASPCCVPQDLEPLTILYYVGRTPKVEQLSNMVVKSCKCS
Method: (§1) Biotinylated synthetic peptide fragments from CLPTM1 (JPT peptides, Germany) were immobilized in a streptavidin 96 well plate (#15500 Pierce) at 1 μM in PBS over night at +4° C. Plate was then washed 4 times in 300 μl PBS with 0.05% tween-20 (wash buffer). The plate was then blocked with PBS 1% BSA and 0.05% tween-20 (blocking buffer) for 1.5 hours at room temperature, then washed 4 times in wash buffer. Ligands GDF15, TGFb1, TGFb2 and TGFb3 (Abcam) were added in blocking buffer at 100 ng/ml and incubated at room temperature for 2 hours. The plate was then washed 8 times in 300 μL wash buffer with 2× NaCl. An anti-GDF15 antibody was added at 1 μg/ml (R&D Systems, goat polyclonal) or a pan-specific anti-TGFb antibody (R&D Systems, mouse 1 D11), and the plate incubated in blocking buffer for 1 hour at room temperature followed by washing with 4×300 μl wash buffer. HAF017 anti-goat-HRP antibody (to detect the anti-GDF15 antibody) or Santa Cruz sc-2005 Goat anti-mouse-HRP (to detect the pan-specific anti-TGFb antibody) was added and the plate incubated for 1 hour in blocking buffer followed by a wash. TMB substrate was added and stopped after 15 minutes with H2SO4. OD 450-620 was measured in an ELISA reader.

GDF15 = molecular target: T2, GDF15 (Homo sapiens, UniProt Q99988); test: as above; details: biotinylated peptide immobilized at 1 μM; ligand 100 ng/ml; OD 450-620 measured
T2 construct: purchased Abcam
T2 sequence (Q99988 195-308): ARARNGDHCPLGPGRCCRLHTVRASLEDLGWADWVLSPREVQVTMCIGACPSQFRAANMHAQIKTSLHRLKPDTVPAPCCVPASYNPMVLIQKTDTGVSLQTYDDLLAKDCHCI
Method: as §1

TGFb2 = molecular target: T3, TGFb2 (Homo sapiens, UniProt P61812); test: as above; details: biotinylated peptide immobilized at 1 μM; ligand 100 ng/ml; OD 450-620 measured
T3 construct: purchased Abcam
T3 sequence (P61812 303-414 limits assumed): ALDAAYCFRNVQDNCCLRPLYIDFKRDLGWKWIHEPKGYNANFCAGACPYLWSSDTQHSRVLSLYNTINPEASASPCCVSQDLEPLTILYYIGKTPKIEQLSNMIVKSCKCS
Method: as §1

TGFb1 = molecular target: T4, TGFb1 (Homo sapiens, UniProt P01137); test: as above; details: biotinylated peptide immobilized at 1 μM; ligand 100 ng/ml; OD 450-620 measured
T4 construct: purchased Abcam
Method: as §1

TGF-β proteins = test: ELISA of Example 1, binding; details: result in words
Method: as §1

M2 polarized macrophages = test: isPLA of TBK1 after ligand stimulation; type: cell-based, human; details: 10 ng/ml o/n, vs untreated control
Method: Human primary M2 polarized macrophages was derived from PBMC obtained from healthy volunteer blood donors. CD14+ cells were isolated using an EasySep CD14 Positive Selection Kit, maintained in RPMI-1640 medium supplemented with 10% FBS, L-Glutamine and Pen-strep. Cells were cultivated for 6 days in the presence of 50 ng/ml recombinant macrophage colony-stimulating factor (M-CSF, R&D Systems) in order to polarize the cells towards an M2 subtype.
For in situ proximity ligation assay (isPLA) experiments the cells were re-plated into 8-well slides (Lab-Tek™ II Chamber Slides, Thermo Fisher).
Cells were stimulated with either TGFB1, TGFB2, TGFB3 at 10 ng/ml. For isPLA, new medium was added, with individual ligands added to separate wells, and the cells incubated o/n prior to fixation in 3% formaldehyde solution for 20 minutes on ice the following day. Fixed cells were washed extensively in PBS and lysed in PBS with 1% Triton at room temperature for 20 minutes. The cells were blocked with Duolink blocking solution (Sigma) and primary antibodies at 1 μg/ml were added o/n. […] The slides were analysed using a Zeiss inverted epiflouroscence microscope set at 20× magnification. DAPI, FITC and CY3.5 channels were recorded. […]

PBMC = test: Proseek secreted proteins, PBMC culture; type: cell-based
Method: Secreted proteins from cell cultures where quantified using multiplexed proximity extension assay, Proseek (Assarsson E et al PlosOne 2014) by Olink Proteomics AB (Uppsala Sweden). Data is presented as Normalized Protein Expression (NPX log 2-scale). The Oncology I v2 92-plex panel was run.
A cell suspension of heparinized peripheral blood was diluted 1:1 and placed on a Ficoll Paque Plus. Cells were centrifuged at 400×g for 30 minutes and the PBMC layer was transferred to a 50 ml tube of PBS and centrifuged for 7 min at 250×g.

MCF7 cells = test: Proseek secreted proteins, MCF7 culture; type: cell-based, human; details: FIG. 6A: exosomes from MCF7 cells, GDF15 1.5 μg/ml 1 hr
Method: Secreted proteins from cell cultures where quantified using multiplexed proximity extension assay, Proseek (Assarsson E et al PlosOne 2014) by Olink Proteomics AB (Uppsala Sweden). Data is presented as Normalized Protein Expression (NPX log 2-scale). The Oncology I v2 92-plex panel was run. MCF7 cells were cultured in serum-free conditions (No FBS added to DMEM) overnight prior to ligand stimulation, and media was replaced 3 times before stimulation to avoid exosomes from FBS. Cells were either treated with control (PBS) or biologically active GDF15 (Abcam) at 1.5 μg/ml for 1 hr at 37° C. For analyses of exosomes in FIG. 6A, conditioned medium was pre-cleared by centrifugation at 14,000×g for 10 min at 4° C., followed by filtration with a […] filter to avoid contaminants from cell debris, followed by ultracentrifugation at 100,000×g for 2 hrs. Pelleted exosome fraction was lysed with 1% Triton X-100 at 4° C., samples diluted in order to have 0.3% Triton concentration and analysed by Proseek multiplex panel as described above.

T4 sequence (P01137 279-390 limits assumed): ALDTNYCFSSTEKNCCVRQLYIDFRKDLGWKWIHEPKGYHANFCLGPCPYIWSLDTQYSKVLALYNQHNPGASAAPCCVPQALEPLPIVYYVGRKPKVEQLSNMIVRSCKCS

Row | ELISA OD450 TGFb3 (TGFb3) | ELISA OD450 GDF15 (GDF15) | ELISA OD450 TGFb2 (TGFb2) | ELISA OD450 TGFb1 (TGFb1) | binding to TGF-β proteins (TGF-β proteins) | Molecule | TBK1 level (M2 polarized macrophages) | HB-EGF secretion (PBMC) | IFNγ expression (PBMC) | Midkine (MK) expression (MCF7 cells)
1 | 0.095 | – | – | – | – | 36 (DTLMNLHVYISEHEHFTDFNATSALFWEQHDLVYGDWTSG; listed as Homo sapiens) [compound 36] | – | – | – | –
2 | 0.091 | – | – | – | – | 38 (VSGDYYPIIYFNDYWNLQKDYYPINESLASLPLRVSFC; listed as Homo sapiens) [compound 38] | – | – | – | –
3 | 0.018 | 0.220 | 0.025 | 0.043 | – | ARSAVVAAGGGSSGQVTSNGSIGRDPPAETQPQNPPAQPA (listed as Homo sapiens) [SEQ ID NO: 34] | – | – | – | –
4 | 0.019 | 0.023 | 0.006 | 0.010 | binds | DTLMNLHVYISEHEHFTDFNATSALFWEQHDLVYGDWTSG (listed as Homo sapiens) [SEQ ID NO: 36] | – | – | – | –
5 | 0.011 | 0.033 | 0.008 | 0.013 | – | LWRWQLYAAQSTKSPWNFLGDELYEQSDEEQDSVKVALLETNP (listed as Homo sapiens) [SEQ ID NO: 33] | – | – | – | –
6 | 0.151 | 0.507 | 0.164 | 1.536 | – | NAWQVIKGVLFRIFIIWAISSWFRRGPAPQDQAGPGGA (listed as Homo sapiens) [SEQ ID NO: 35] | – | – | – | –
7 | 0.300 | 0.779 | 1.630 | 2.102 | favourable binding | PLDQYVKFDAVSGDYYPIIYFNDYWNLQKDYYPINESLA (listed as Homo sapiens) [SEQ ID NO: 39] | – | – | – | –
8 | 0.007 | 0.021 | 0.009 | 0.177 | favourable binding | SGDYYPIIYFNDYWNLQKDYYPINESLA (listed as Homo sapiens) [SEQ ID NO: 40] | – | – | – | –
9 | 0.041 | 0.055 | 0.009 | 0.015 | binding has also been observed | TKSGFHPDPRQKALYRRLATVHMSRMINKYKRRRFQKTKN (listed as Homo sapiens) [SEQ ID NO: 37] | – | – | – | –
10 | 0.029 | 0.061 | 0.014 | 0.032 | favourable binding | VSGDYYPIIYFNDYWNLQKDYYPINESLASLPLRVSFC (listed as Homo sapiens) [SEQ ID NO: 38] | – | – | – | –

Continued, molecule first:

Row | Molecule | ELISA OD450 TGFb3 (TGFb3) | ELISA OD450 GDF15 (GDF15) | ELISA OD450 TGFb2 (TGFb2) | ELISA OD450 TGFb1 (TGFb1) | binding to TGF-β proteins (TGF-β proteins) | TBK1 level (M2 polarized macrophages) | HB-EGF secretion (PBMC) | IFNγ expression (PBMC) | Midkine (MK) expression (MCF7 cells)
11 | GDYYPIIYFNDYWNLQKDYYG (listed as Homo sapiens) [SEQ ID NO: 28] | 0.065 | 0.140 | 0.019 | 0.152 | binding | – | – | – | –
12 | KALYRRLATVHMSRMINKYKG (listed as Homo sapiens) [SEQ ID NO: 17] | 0.0060 | 0.042 | 0.013 | 0.026 | binding | – | – | – | –
13 | LDQYVKFDAVSGDYYPIIYFG (listed as Homo sapiens) [SEQ ID NO: 21] | 0.020 | 0.034 | 0.002 | 0.022 | binding | – | – | – | –
14 | SGDYYPIIYFNDYWNLQKDYYPINESLASLPLRVSFCPLS (listed as Homo sapiens) [SEQ ID NO: 32] | 0.014 | 0.022 | 0.007 | 0.010 | favourable binding | – | – | – | –
15 | TGFb1: TGF-β isoform 1, ligand for CLPTM1 | – | – | – | – | – | reduced | – | – | –
16 | YPINESLASLPLRVSFCPLSG (listed as Homo sapiens) [SEQ ID NO: 27] | 0.068 | 0.098 | 0.005 | 0.011 | binding | – | – | – | –
17 | GDF15: Growth and Differentiation Factor 15, TGF-β superfamily ligand of CLPTM1 (protein) ARNGDHCPLGPGRCCRLHTVRASLEDLGWADWVLSPREVQVTMCIGACPSQFRAANMHAQIKTSLHRLKPDTVPAPCCVPASYNPMVLIQKTDTGVSLQTYDDLLAKDCHCI | – | – | – | – | – | – | increased | reduced | increased
